Read-outs that look alike come from different tables or passages of the source.
Assays:
[1] = KARI activity (NADH consumption, acetolactate to 2,3-dihydroxy isovalerate); format: biochemical; details: natural substrate
Experimental: (§1) (J. Mol. Catal. B-Enzym. 2009, 61, 30-35).
KARL activity: KARI activity was assayed by following the NADH consumption connected to the conversion of acetolactate to 2,3-dihydroxy isovalerate at 50° C. Assay mixture contained 5 mM acetolactate, 0.3 mM NADH, 10 mM MgCl2 and 50 mM HEPES, pH 7.

[2] = Enzyme temperature optimum; format: biochemical; details: Table 2
[3] = Isobutanol tolerance of enzymes (I50); format: biochemical
[4] = Enzyme half-life at 50° C.
[5] = ALS activity (pyruvate consumption); format: biochemical; details: natural substrate
Experimental: as §1
ALS activity: ALS activity was determined by following pyruvate consumption at 50° C. Reaction mixtures contained 25 mM HEPES (pH 7), 0.1 mM thiamine-pyrophosphate, 2.5 mM MgCl2, 15 mM sodium pyruvate. Pyruvate concentration in the samples was determined via lactate dehydrogenase as described elsewhere. (Biochem. J. 2007, 403, 421-430)

[6] = Table 2, value with literature reference; cited from earlier work
[7] = KDC activity (decarboxylation of 2-ketoisovalerate); format: biochemical; details: natural substrate
Experimental: as §1
KDC activity: KDC activity was assayed by following the decarboxylation of 2-ketoisovalerate to isobutyraldehyde at 50° C. and 340 nm. Assay mixture contained 50 mM HEPES (pH 7), 0.1 mM thiamine-pyrophosphate, 2.5 mM MgCl2 and 60 mM 2-ketoisovalerate. Decarboxylation rate was calculated using the molar extinction coefficient of 2-ketoisovalerate (s=0.017 L mmol-1 cm-1). (J. Mol. Catal. B-Enzym. 2009, 61, 30-35)

| Molecule | Activity, 50° C. [1] [U/mg] | T-Optimum [2] [°C] | I50: Isobutanol concentration which causes loss of 50% activity ([3]; 40° C.) | Half-life, 50° C. [4] [h] | Activity, 50° C. [5] [U/mg] | I50: Isobutanol concentration which causes loss of 50% activity ([3]; 50° C.) | T-Optimum [6] | Activity, 50° C. [7] [U/mg] | I50: Isobutanol concentration which causes loss of 50% activity ([3]; 45° C.) |
| --- | --- | --- | --- | --- | --- | --- | --- | --- | --- |
| KARI: Ketol-acid reductoisomerase KARI (EC 1.1.1.86), Meiothermus ruber, Seq ID 14 (protein, Ketolacid reductoisomerase (EC 1.1.1.86), Meiothermus ruber Protein sequence including C-terminal His-Tag) MKIYYDQDADIGFIKDKTVAILGFGSQGHAHALNLRDSGIKVVVGLRPGSRNEEKARKAGLEVLPVGEAVRRADVVMILLPDETQGAVYKAEVEPNLKEGAALAFAHGFNIHFGQIKPRRDLDVWMVAPKGPGHLVRSEYEKGSGVPSLVAVYQDASGSAFPTALAYAKANGGTRAGTIATTFKDETETDLFGEQTVLCGGLTQLIAAGFETLVEAGYPPEMAYFECLHEVKLIVDLIYESGFAGMRYSISNTAEYGDYTRGPMVINREETKARMREVLRQIQQGEFAREWMLENVVGQPTLNANRNYWKDHPIEQVGPKLRAMMPFLKSRFTKEEVGSSGRPVLGSSHHHHHH | 0.7 | 55 | 8 (40° C.) % v/v | 34 | – | – | – | – | – |
| ALS: Acetolactate synthase ALS (EC 2.2.1.6), Bacillus subtilis, Seq ID 12 (protein, listed as Bacillus subtilis) MLTKATKEQKSLVKNRGAELVVDCLVEQGVTHVFGIPGAKIDAVFDALQDKGPEIIVARHEQNAAFMAQAVGRLTGKPGVVLVTSGPGASNLATGLLTANTEGDPVVALAGNVIRADRLKRTHQSLDNAALFQPITKYSVEVQDVKNIPEAVTNAFRIASAGQAGAAFVSFPQDVVNEVTNTKNVRAVAAPKLGPAADDAISAAIAKIQTAKLPVVLVGMKGGRPEAIKAVRKLLKKVQLPFVETYQAAGTLSRDLEDQYFGRIGLFRNQPGDLLLEQADVVLTIGYDPIEYDPKFWNINGDRTIIHLDEIIADIDHAYQPDLELIGDIPSTINHIEHDAVKVEFAEREQKILSDLKQYMHEGEQVPADWKSDRAHPLEIVKELRNAVDDHVTVTCDIGSHAIWMSRYFRSYEPLTLMISNGMQTLGVALPWAIGASLVKPGEKVVSVSGDGGFLFSAMELETAVRLKAPIVHIVWNDSTYDMVAFQQLKKYNRTSAVDFGNIDIVKYAESFGATGLRVESPDQLADVLRQGMNAEGPVIIDVPVDYSDNINLASDKLPKEFGELMKTKALL | – | – | – | 12 | 30 | 4 (50° C.) % v/v | 37^[4] ° C. | – | – |
| KDC: Branched-chain-2-oxo acid decarboxylase KDC (EC 4.1.1.72), Lactococcus lactis, Seq ID 16 (protein, Branched-chain ketoacid decarboxylase (EC 4.1.1.72), Lactococcus lactis Protein sequence including N-terminal His-Tag) MGSSHHHHHHSSGLVPRGSHMASMYTVGDYLLDRLHELGIEEIFGVPGDYNLQFLDQIISREDMKWIGNANELNASYMADGYARTKKAAAFLTTFGVGELSAINGLAGSYAENLPVVEIVGSPTSKVQNDGKFVHHTLADGDFKHFMKMHEPVTAARTLLTAENATYEIDRVLSQLLKERKPVYINLPVDVAAAKAEKPALSLEKESSTTNTTEQVILSKIEESLKNAQKPVVIAGHEVISFGLEKTVTQFVSETKLPITTLNFGKSAVDESLPSFLGIYNGKLSEISLKNFVESADFILMLGVKLTDSSTGAFTHHLDENKMISLNIDEGIIFNKVVEDFDFRAVVSSLSELKGIEYEGQYIDKQYEEFIPSSAPLSQDRLWQAVESLTQSNETIVAEQGTSFFGASTIFLKSNSRFIGQPLWGSIGYTFPAALGSQIADKESRHLLFIGDGSLQLTVQELGLSIREKLNPICFIINNDGYTVEREIHGPTQSYNDIPMWNYSKLPETFGATEDRVVSKIVRTENEFVSVMKEAQADVNRMYWIELVLEKEDAPKLLKKMGKLFAEQNK | – | – | – | >24 | – | – | 50^[5] ° C. | 150 | 4 (45° C.) % v/v |

Reference: patent US20150218594A1, “CELL-FREE AND MINIMIZED METABOLIC REACTION CASCADES FOR THE PRODUCTION OF CHEMICALS” (CLARIANT PRODUKTE (DEUTSCHLAND) GMBH, priority 2012, published 2015)
